# Results published in article PMC12435574.
# B1: Hsp47: S76A (protein)
# parent chain: MRSLLLLSAFCLLEAALAAEVKKPAAAAAPGTAEKLSPKAATLAERSAGLAFSLYQAMAKDQAVENILVSPVVVASSLGLVSLGGKATTASQAKAVLSAEQLRDEEVHAGLGELLRSLSNSTARNVTWKLGSRLYGPSSVSFADDFVRSSKQHYNCEHSKINFRDKRSALQSINEWAAQTTDGKLPEVTKDVERTDGALLVNAMFFKPHWDEKFHHKMVDNRGFMVTRSYTVGVMMMHRTGLYNYYDDEKEKLQIVEMPLAHKLSSLIILMPHHVEPLERLEKLLTKEQLKIWMGKMQKKAVAISLPKGVVEVTHDLQKHLAGLGLTEAIDKNKADLSRMSGKKDLYLASVFHATAFELDTDGNPFDQDIYGREELRSPKLFYADHPFIFLVRDTQSGSLLFIGRLVRPKGDKMRDEL
# B2: Hsp47: OSMI-1 (protein)
# parent chain: MRSLLLLSAFCLLEAALAAEVKKPAAAAAPGTAEKLSPKAATLAERSAGLAFSLYQAMAKDQAVENILVSPVVVASSLGLVSLGGKATTASQAKAVLSAEQLRDEEVHAGLGELLRSLSNSTARNVTWKLGSRLYGPSSVSFADDFVRSSKQHYNCEHSKINFRDKRSALQSINEWAAQTTDGKLPEVTKDVERTDGALLVNAMFFKPHWDEKFHHKMVDNRGFMVTRSYTVGVMMMHRTGLYNYYDDEKEKLQIVEMPLAHKLSSLIILMPHHVEPLERLEKLLTKEQLKIWMGKMQKKAVAISLPKGVVEVTHDLQKHLAGLGLTEAIDKNKADLSRMSGKKDLYLASVFHATAFELDTDGNPFDQDIYGREELRSPKLFYADHPFIFLVRDTQSGSLLFIGRLVRPKGDKMRDEL
# Key:
# [1] = immunofluorescence co-localisation with calnexin and GM130; conditions: glycan lost; control: cells without S76A mutation
# [2] = confocal immunofluorescence (LSCM), HCT116; conditions: glycan lost; control: wild type
# [3] = confocal co-localisation with phalloidin, calnexin, GM130; conditions: glycan lost; control: untreated
Protein,other: response of collagen I secretion/procollagen transport to kaempferol or OGT knockdown [1],other: collagen I secretion by cells [2],localisation_or_trafficking [3]
B1,abolishes,decreases,
B2,,,changes
